Data on two molecules can be found in US10821189B2, “CD38 ligand-drug conjugates for targeted cancer therapy” (THE METHODIST HOSPITAL SYSTEM, priority 2015, dated 2020).

Data set [1] has as its system orthotopic MM tumors (RPMI8226GL). As to the kind of experiment: Orthotopic MM xenograft mouse model. Type of data set: in vivo, NOD/SCID IL2rg−/− mice. The conditions noted are these: 0.5 mg/kg Dox, every other day, 13 treatments, observed up to 60 days. The protocol: 0.5×10^6 RPMI8226 GL cells were inoculated bilaterally into tibiae of 8- to 10-week-old NOD/SCID IL2rg−/− mice. Engraftment was monitored by weekly whole-body bioluminescence imaging on Xenogen IVIS imaging system, as previously reported (Wen, J., Feng, Y, Bjorklund, C. C., Wang, M., Orlowski, R. Z., Shi, Z. Z., Liao, B., O'Hare, J., Zu, Y, Schally, A. V., et al. 2011. Luteinizing Hormone-Releasing Hormone (LHRH)-I antagonist cetrorelix inhibits myeloma cell growth in vitro and in vivo. Mol Cancer Ther 10:148-158). Starting with day 6, mice were treated with free DOX (0.5 mg/kg) or an equivalent ApDC amount (6 mice per group) every other day (13 treatments total). Treatments were administered via the tail vein injection. Bioluminescence intensities representative of tumor mass were quantified by Living Image 3.1. Mice were euthanized by CO2 as they became moribund and their survival curves were plotted with SPSS 10 statistical software (SPSS Inc., Chicago, Ill., USA). All experiments were approved by the IACUC of the Houston Methodist Research Institute. Cells isolated from tumor tissues were examined under a fluorescence microscope for GFP expression. […]

For data set [2], the system named is control cells (HDLM2). As to the kind of experiment: Intracellular DOX delivery by confocal microscopy, control cells. The conditions noted are these: HDLM2, 2 h treatment, equal molar DOX. Type of data set: cell-based. On the procedure: (§1) CD38+ MM and CD38− non-MM cells were incubated with free DOX (0.5 μmol/L final concentration) or ApDC (final equivalent concentration of aptamer was 0.1 μmol/L and DOX—0.5 μmol/L) for 1 hour. After washing, cells were resuspended with fresh medium, cultured for 2 hours, and then examined under a 40× objective (Olympus FV 1000 confocal microscope). DOX fluorescence was excited with a 5 mW, 488 nm Ar+ laser.

The nature of data set [3]: DNase I digestion, release of free DOX. Type of data set: physicochemical.
Another data set has as its system MM cells (RPMI8226). Kind of data set: Intracellular DOX delivery by confocal microscopy, MM cells. It is filed as cell-based, Human. The conditions noted are these: RPMI8226, 2 h treatment, equal molar DOX. The protocol:
as §1

The subject of data set [4] is xenograft tumors of lymphoma (K299GL). Kind of data set: Whole body fluorescent imaging of Cy5.5-labeled aptamer, control tumor. Type of data set: in vivo, NOD/SCID IL2rg−/− mice. The conditions noted are these: control tumor in the same mouse. The protocol: (§2) In vitro biostability of Aptamer#1S was evaluated as previously described (49). In brief, the aptamer was incubated with human serum (Atlanta Biologicals) for 24 hours, and samples were collected at different times using phenol-chloroform extraction. The amount of undigested aptamer was visualized on a 5% agarose gel. In vivo experiments were done in accordance with the institutional guidelines for the use of laboratory animals. To determine the in vivo biostability of Aptamer#1S, 2×10^6 RPMI8226GL and K299GL cells were inoculated subcutaneously into 8- to 10-week-old NOD/SCID IL2rg−/− mice (Jackson Laboratory, Bar Harbor, Me.). Tumor growth was monitored by weekly whole-body bioluminescence imaging using Xenogen IVIS imaging system (PerkinElmer, Waltham, Mass.). Once tumors formed, 5 ng Cy5.5-labeled APTAMER#1S dissolved in PBS was injected via the tail vein and its signal was monitored on the IVIS system.

The next data set has as its system MM cells (MM1S). Kind of data set: Cell binding assay of Cy3-labeled aptamers by flow cytometry, CD38+ MM cells. Also noted: species or system Human. The conditions noted are these: Cy3-labeled aptamer. From the text: (§3) The top-20 enriched aptamer sequences were synthesized to include Cy3 modification and their affinity and specificity analyzed by flow cytometry. Aptamer#1S was derived by truncating Aptamer#1 based on ValFold software structural prediction (VALWAY Technology Center, NEC Soft Ltd., Tokyo, Japan) (Navani, N. K., Mok, W. K., and Yingfu, L. 2009. In vitro selection of protein-binding DNA aptamers as ligands for biosensing applications. Methods Mol Biol 504:399-415).
(§4) For aptamer staining, cells were stained with Cy3-labeled aptamer at 50 nmol/L (for flow cytometry analysis) or 100 nmol/L (for fluorescence microscopy, Olympus America, Melville, N.Y.) for 30 minutes. For 5(6)-Carboxyfluorescein diacetate N-hydroxysuccinimidyl ester (CFSE, Abcam, Cambridge, Mass.) staining, CD38-control cells were pre-stained with 0.5 μmol/L CFSE for 15 minutes according to the manufacturer's specifications and mixed with unlabeled CD38+MM cells, followed by Cy3-labeled aptamer staining for 30 minutes. For antibody staining, cultured cells or mononuclear cells freshly isolated from MM patient bone marrow samples were stained with antibody (BioLegend) as specified for 15 minutes.

The subject of data set [5] is xenograft tumors of MM (RPMI8226GL). As to the kind of experiment: Whole body fluorescent imaging of Cy5.5-labeled aptamer, MM tumor. It is filed as in vivo, NOD/SCID IL2rg−/− mice. On the procedure:
as §2

The test system of data set [6] is CD38 negative control cells (HDLM2). As to the kind of experiment: Fluorescence microscopy of a cell mixture stained with Cy3-labeled aptamer, control cells. Type of data set: cell-based. The conditions noted are these: control cells pre-stained in green. On the procedure:
as §4

Data set [7] deals with control cells (HDLM2). As to the kind of experiment: Cell binding assay of Cy3-labeled aptamers by flow cytometry, CD38-negative control cells.
Excerpt: as §3, §4

A short description of data set [8]: Aptamer biostability in human serum, gel electrophoresis. It is filed as in vitro ADME. The conditions noted are these: human serum at 37° C. On the procedure: as §2
In data set [9] the target is T1, cellular CD38 proteins from MM cells (MM1S) (Homo sapiens, UniProt P28907).
T1 construct: cells were lysed in radioimmunoprecipitation assay (RIPA) buffer; endogenous in cells; host or cells: MM1S (CD38+ myeloma cell line), RIPA lysate
T1 sequence (P28907 1-300): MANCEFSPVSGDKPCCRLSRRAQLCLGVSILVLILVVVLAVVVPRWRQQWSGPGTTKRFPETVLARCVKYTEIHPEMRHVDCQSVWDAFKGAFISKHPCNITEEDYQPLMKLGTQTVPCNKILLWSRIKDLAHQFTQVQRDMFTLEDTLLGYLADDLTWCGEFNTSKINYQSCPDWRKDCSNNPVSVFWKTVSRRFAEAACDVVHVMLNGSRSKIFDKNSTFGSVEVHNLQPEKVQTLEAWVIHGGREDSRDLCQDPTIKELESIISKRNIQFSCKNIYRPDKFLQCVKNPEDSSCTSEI
As to the kind of experiment: Precipitation of cell lysate proteins with biotin-labeled aptamers, western blot with anti-CD38 antibody. Type of data set: binding. The conditions noted are these: MM1S lysates. The protocol: Immunoprecipitation with biotin-labeled aptamers was performed as previously reported (Shi, F., Cheng, Y. F., Wang, X. L., and Edge, A. S. 2010. Beta-catenin up-regulates Atohl expression in neural progenitor cells by interaction with an Atohl 3′ enhancer. J Biol Chem 285:392-400). In brief, cells were lysed in radioimmunoprecipitation assay (RIPA) buffer supplemented with Halt protease and phosphatase inhibitor cocktail (Thermo Fisher Scientific). Biotin-labeled aptamers were incubated with lysates for 2 hours at 4° C. in SELEX binding buffer supplemented with Halt protease and phosphatase inhibitor cocktail. Aptamer-bound proteins were collected with streptavidin agarose resin (Thermo Fisher Scientific) following 1 hour incubation at 4° C. Precipitated proteins were washed 5 times with SELEX washing buffer supplemented with Halt protease and phosphatase inhibitor cocktail, boiled in sample buffer, and supernatants were analyzed by western blotting using an anti-CD38 antibody (Cell Signaling Technology, Danvers, Mass.). […]

Data set [10] in a line: DOX loading capacity by quenching of DOX fluorescence. It is filed as physicochemical. The conditions noted are these: components alone, FIG. 3C. The protocol:
DOX was purchased from Thermo Fisher Scientific. Since DOX preferentially binds to double-stranded 5′-GC-3′ or 5′-CG-3′ repeats (Meng, L., Yang, L., Zhao, X., Zhang, L., Zhu, H., Liu, C., and Tan, W. 2012. Targeted delivery of chemotherapy agents using a liver cancer-specific aptamer. PLoS One 7:e33434), CG repeats were added to the 5′ end of Aptamer#1S to make the modified Aptamer#1S/CG-Cargo sequence. To determine the optimal molar ratio of aptamer to DOX, Apamer#1S/CG-Cargo sequence was heated at 95° C. for 5 minutes, cooled immediately on ice for 15 minutes, and then incubated with a fixed concentration of DOX (final concentration of DOX was 0.5 μmol/L) at various aptamer/DOX ratios ranging from 1:100 to 1:0.5. After 1 hour, the fluorescence (λEx=[…], λEm=[…]) was measured with a Synergy4 analyzer (BioTek, Winooski, Vt.). The minimal ratio at which the fluorescence of DOX was quenched to the maximal extent was determined as the optimal molar ratio (1:5 of aptamer to DOX) (29).

The subject of another data set is cultured MM cells (MM1S). As to the kind of experiment: Fluorescence microscopy of a cell mixture stained with Cy3-labeled aptamer, MM cells. Type of data set: cell-based, Human. On the procedure:
as §4

The test system of data set [11] is CD38+ (RPMI8226 and NCI-H929) and CD38− (K299 and Jeko1) cell lines. As to the kind of experiment: Cell binding in additional CD38+ and CD38− cell lines. The protocol:
as §4

Bounds are passed on as bounds.

With `COc1cccc2c1C(=O)c1c(O)c3c(c(O)c1C2=O)C[C@@](O)(C(=O)CO)C[C@@H]3O[C@H]1C[C@H](N)[C@H](O)[C@H](C)O1` [free DOX, doxorubicin], in data set [1], the “survival of mice bearing orthotopic MM tumors” value is “no effect on mouse survival”. Besides, the “intracellular DOX delivery into control cells” value in the data set on control cells (HDLM2) [2] is reported as “non-specific intracellular drug accumulation”. Further, in data set [3], the “fluorescence change after DNase treatment” value was “no change”. In addition, in the data set on MM cells (RPMI8226), the “intracellular DOX delivery into MM cells” value is listed as “non-specific intracellular drug accumulation”.

B1: Aptamer#1S: truncated 61-mer of Aptamer#1 inheriting the intact stem-loop structure, SEQ ID NO: 2 (nucleic acid)
DNA: TCCAGAGTGACGCAGCAGCCAACGTGCTTTCTACCTTATTTTCCGTCACTCTCACTCTGGA
modifications: DNA, backbone and methylation of C not given here; further chemistry not fully specified
Turning to B1, the “accumulation in control tumor” value in [4] is “not in control tumor”. Also, the “binding to MM cells (MM1S)” value with MM cells (MM1S) is given as “specifically targeted MM cells”. In data set [5] (Cy5.5-labeled, systemic administration), the “accumulation in MM tumor” value was “selectively accumulated in MM tumor”. In addition, the “duration of specific imaging signals” value in [5] (post systemic administration) is “up to 12 h”. In addition, the “reaction with control cells in cell mixture” value in data set [6] is listed as “did not react to control cells”. In addition, the “binding to control cells (HDLM2)” value with control cells (HDLM2) [7] is “did not react to CD38-negative control cells”. Moreover, the “time stable in human serum” value in data set [8] was at least 24 h. The “precipitation of cellular CD38 protein” value in data set [9] was “specifically reacted to and immunoprecipitated cellular CD38 proteins”. The drug loading capacity entry in [10] is recorded as “very limited drug loading capacity”. In addition, the “targeting of MM cells in cell mixture” value in the data set on cultured MM cells (MM1S) (Cy3-labeled aptamer) was “selectively targeted MM cells”. Also, in the data set on cultured MM cells (MM1S) (intracellular signals), the “internalization into MM cells” value was “internalized into the MM cells”. The “affinity and specificity in additional MM and control cells” value in data set [11] is reported as “further confirmed”.
